Kd data for one sequence are collected here from the Immune Epitope Database (IEDB).

Assay in all cases: IEDB peptide-MHC binding, purified MHC/direct/fluorescence; filed as Kd, often an IC50 or EC50 that approximates it; ≥ and ≤ were set here for values at or beyond the usual limits of such assays
The target in one assay is HLA-A*01:01. To be noted: source organism: Salmonella enterica.
The next assay addresses HLA-A*02:10. Particulars: source organism: Salmonella enterica subsp. enterica serovar Typhimurium str. LT2.
In another assay the target is HLA-A*02:12. Particulars: source organism: Salmonella enterica subsp. enterica serovar Typhimurium str. LT2.
The target of another assay is HLA-A*03:01. Particulars: source organism: Salmonella enterica.
Another assay addresses HLA-A*23:01. To be noted: source organism: Salmonella enterica subsp. enterica serovar Typhimurium str. LT2.
Another assay has as its target HLA-B*08:01. Particulars: source organism: Salmonella enterica subsp. enterica serovar Typhimurium str. LT2.
A further assay has as its target HLA-B*18:01. Particulars: source organism: Salmonella enterica subsp. enterica serovar Typhimurium str. LT2.
The target in a further assay is HLA-B*27:05. Particulars: source organism: Salmonella enterica.
For another assay, the target named is HLA-B*46:01. To be noted: source organism: Salmonella enterica.
The target of a further assay is HLA-B*57:01. Particulars: source organism: Salmonella enterica.

In the case of FPASHMATY, the Kd in the assay with HLA-A*01:01, with HLA-A*02:10, in the assay with HLA-A*02:12, with HLA-A*03:01, in the assay with HLA-A*23:01 and with HLA-B*08:01 was at least 20 µM throughout. Also, the Kd (as a rule, the concentration at which binding is half-saturated) was 0.007 µM with HLA-B*18:01, at least 20 µM in the assay with HLA-B*27:05, 9 µM in the assay with HLA-B*46:01 and at least 20 µM with HLA-B*57:01.
